Laboratory results taken from article PMC12202928, “Bidirectional interdomain crosstalk in a Porphyromonas gingivalis chimeric enzyme coordinates catalytic synergy for aromatic amino acid biosynthesis” (Frontiers in Microbiology, 2025).

Molecular target: the molecule itself
Experiment: SEC; analytical SEC on ENrich SEC 650 calibrated with mass standards; 50 mM BTP pH 7.4, 4°C, protein loaded at 1 mg/mL, 0.2 mL/min; apparent mass compared with theoretical monomer mass

B1: PgiDAH7PS-CM (bifunctional 3-deoxy-D-arabino heptulosonate-7-phosphate synthase / chorismate mutase from Porphyromonas gingivalis) (enzyme, UniProt B2RJM7 1-366, looked up)
chain: MKYCDFTPLPLPSEPNTTVIAGPCSAESEEQIMTTARALRDEAGIRIFRAGLWKPRTLPGCFEGVGETGLPWLVRVQDELDMLATTEVATREHVEQAMQAGIRILWLGARTTSNPFAVQEIADTIGKDESVIVLVKNPISPDLDLWTGALERLRQSGVRQIGAIHRGFSTYATKTFRNPPHWQIPFDLKRRFPSLTILCDPSHITGQRDRIESVSQQAMEMNFDGLIIESHCCPDKALSDASQQITPTVLAQILRRLRIPRRQSEKQDEELISWRMQIDQIDESIVELLARRMQVAYEIGLFKKEHNLAVVQNLRYEQLQRNRARTAALLGLDETFISELFSRIHEESVRLQTLAPQKPHTDDCIS
notes: PgiDAH7PS-CM, Porphyromonas gingivalis, UniProt B2RJM7, 366 amino acid residues; DAH7PS domain 17-253, 11-residue linker, CM domain 265-356; codon-optimised synthetic gene in pET28a; Homodimer by analytical SEC (68 ± 6 kDa against a theoretical monomer of 42 kDa); also called full-length PgiDAH7PS-CM; PgiDAH7PS^WT; source: E. coli BL21 (DE3), purified (HisTrap HP, TEV digestion, second HisTrap); …
Question: With B1 as the protein, how does the “stoichiometry N” value read?
Answer: 2

B2: PgiCM (separated CM domain of PgiDAH7PS-CM) (domain or fragment, Porphyromonas gingivalis, UniProt B2RJM7 259-366, looked up)
chain: IPRRQSEKQDEELISWRMQIDQIDESIVELLARRMQVAYEIGLFKKEHNLAVVQNLRYEQLQRNRARTAALLGLDETFISELFSRIHEESVRLQTLAPQKPHTDDCIS
notes: C-terminal part of PgiDAH7PS-CM, Porphyromonas gingivalis, UniProt B2RJM7, split between R258 and I259; theoretical monomer MW 13 kDa; source: E. coli BL21 (DE3), purified (HisTrap HP, TEV digestion, second HisTrap); not shown: His6, N-terminal, cleaved
Question: With B2 as the protein, how does the “stoichiometry N” value read?
Answer: 2
